Data on 1 substance can be found in patent publication US20210403547A1.

In the assay the target is membrane-bound ligands (TGF-alpha and Epiregulin) on HT-29 cells. Nature of the assay: cell-based or functional assay.

Substance Control IgG (antibody) registered a Mean Ringspot Total Intensity of Fluorescence (internalization into HT-29 cells), 40 ug/mL, 0 min post addition of 94; a Mean Ringspot Total Intensity of Fluorescence (internalization into HT-29 cells), 40 ug/mL, 5 min post addition of 116; a Mean Ringspot Total Intensity of Fluorescence (internalization into HT-29 cells), 40 ug/mL, 15 min post addition of 126; a Mean Ringspot Total Intensity of Fluorescence (internalization into HT-29 cells), 40 ug/mL, 30 min post addition of 124. The same substance displayed a Mean Ringspot Total Intensity of Fluorescence (internalization into HT-29 cells), 40 ug/mL, 60 min post addition of 167; a Mean Ringspot Total Intensity of Fluorescence (internalization into HT-29 cells), 40 ug/mL, 120 min post addition of 177; a Mean Ringspot Total Intensity of Fluorescence (internalization into HT-29 cells), dose 0.34 ug/ml, 2 h at 37 C of 1410; a Mean Ringspot Total Intensity of Fluorescence (internalization into HT-29 cells), dose 0.69 ug/ml, 2 h at 37 C of 1480. Moreover, the Mean Ringspot Total Intensity of Fluorescence (internalization into HT-29 cells), dose 1.38 ug/ml, 2 h at 37 C turned out to be 1470; the Mean Ringspot Total Intensity of Fluorescence (internalization into HT-29 cells), dose 2.75 ug/ml, 2 h at 37 C was 1570; the Mean Ringspot Total Intensity of Fluorescence (internalization into HT-29 cells), dose 5.5 ug/ml, 2 h at 37 C stood at 1360; the Mean Ringspot Total Intensity of Fluorescence (internalization into HT-29 cells), dose 11 ug/ml, 2 h at 37 C amounted to 1390. This substance also registered a Mean Ringspot Total Intensity of Fluorescence (internalization into HT-29 cells), dose 22 ug/ml, 2 h at 37 C of 1760; a Mean Ringspot Total Intensity of Fluorescence (internalization into HT-29 cells), dose 44 ug/ml, 2 h at 37 C of 1810; a Mean Ringspot Total Intensity of Fluorescence (internalization into HT-29 cells), dose 88 ug/ml, 2 h at 37 C of 2440.
